Holding throughout (experiment): HPLC of UDP release, initial rates, Michaelis-Menten fit
Type in all cases: biochemical, Citrus japonica
What all share (details): 1.0 mM phloretin as acceptor, pH 8.0, 30 °C, donor 20-800 µM

Substrate in data set [1]: O=c1ccn([C@@H]2O[C@H](COP(=O)(O)OP(=O)(O)O[C@H]3OC[C@@H](O)[C@H](O)[C@H]3O)[C@@H](O)[C@H]2O)c(=O)[nH]1
Substrate in data set [2]: O=c1ccn([C@@H]2O[C@H](COP(=O)(O)OP(=O)(O)O[C@H]3O[C@H](CO)[C@H](O)[C@H](O)[C@H]3O)[C@@H](O)[C@H]2O)c(=O)[nH]1
Substrate in data set [3]: O=c1ccn([C@@H]2O[C@H](CO[P@@](=O)(O)O[P@@](=O)(O)O[C@H]3O[C@H](CO)[C@@H](O)[C@H](O)[C@H]3O)[C@@H](O)[C@H]2O)c(=O)[nH]1

B1: FcCGT (Citrus japonica) (protein)
chain: MSDSGGFDSHPHVALIPSAGMGHLTPFLRLAASLVQHHCRVTLITTYPTVSLAETQHVSHFLSAYPQVTEKRFHLLPFDPNSANATDPFFLRWEAIRRSAHLLAPLLSPPLSALITDVTLISAVLPVTINLHLPNYVLFTASARMFSLTASFPAIVASKSTSSGSVEFDDDFIEIPGLPPIPLSSVPPAVMDSKSLFATSFLENGNSFVKSNGVLINSFDALEADTLVALNGRRVVAGLPPVYAVGPLLPCEFEKRDDPSTSLILKWLDDQPEGSVVYVSFGSRLALSMEQTKELGNGLLSSGCRFLWVVKGKTVDKEDEESLKNVLGHELMEKIKDQGLVVKNWVDQDKVLSHRAVGGFVSHGGWNSLVEAARHGVPVLVWPQFGDQKINAEAVESAGLGMWVRSWGWGTELRAKGDEIGLKIKDLMANDFLREQAKRIEEEARKAIGVGGSSERTFKELIDKWKCNNNTH
notes: recombinant purified; polypeptide Mr 53600; construct details in supplement and Li et al. 2023
By Km is commonly meant the concentration of substrate that gives half-maximal velocity. Turning to B1, the Michaelis constant (Km) in data set [1] was found to be 122 ± 11 µM; in data set [2], 432 ± 26 µM; in data set [3] it was 55 ± 2.4 µM. Also, the values for the kcat in data set [1], in data set [2] and in data set [3] were 15 ± 0.8 min–1, 0.28 ± 0.01 min–1 and 139 ± 2.5 min–1, respectively.

The values above are taken from publication PMC11975207, “One‐Pot Hetero‐Di‐C‐Glycosylation of the Natural Polyphenol Phloretin by a Single C‐Glycosyltransferase With Broad Sugar Substrate Specificity” (Biotechnology and Bioengineering, 2025).
